In PMC10572602, “Molecular Mechanism of STIL Coiled-Coil Domain Oligomerization” (International Journal of Molecular Sciences, 2023):
Blank lines part the entries; values can stand above or below the molecule they belong to. No end group written: not given here.

What was measured:
[1] = biological target: PLK4 884-970 (Homo sapiens) (UniProt O00444); test: ITC; conditions: cited from earlier work
STIL CCD_(718–749) L736E = test: crystal structure; L736E crystallized at 0.9 mM peptide, 50 mM Tris pH 8.0, 10% v/v MPD, 4 °C; 1.67 Å
[2] = biological target: T1, STIL CCD peptide with a different fluorophore (fluorescence polarization) (a fluorophore other than the coumarin, not named, position not stated; C-terminal amide); test: fluorescence polarisation; same STIL CCD peptide with a different fluorophore; Hill fit; dimer to monomers; conditions: both partners purified
T1 construct: STIL coiled-coil domain, residues 718-749; also called same STIL CCD peptide and different fluorophore; source: synthetic peptide
T1 peptide: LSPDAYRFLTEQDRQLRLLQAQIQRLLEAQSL

[3] = biological target: the molecule itself; test: AUC; sedimentation velocity, 75 µM peptide, c(s) distribution; 20 °C, 25 mM sodium phosphate pH 6.8, ionic strength 154 mM (NaCl)
[4] = biological target: the molecule itself; test: AUC; sedimentation velocity, 500 µM peptide, c(s) distribution; 20 °C, 25 mM sodium phosphate pH 6.8, ionic strength 154 mM (NaCl)
[5] = biological target: the molecule itself; test: AUC; sedimentation velocity, 12.5 µM peptide, c(s) distribution; 20 °C, 25 mM sodium phosphate pH 6.8, ionic strength 154 mM (NaCl)
[6] = biological target: the molecule itself; test: AUC; sedimentation velocity, 10 µM peptide, c(s) distribution; 20 °C, 25 mM sodium phosphate pH 6.8, ionic strength 154 mM (NaCl)
[7] = biological target: the molecule itself; test: AUC; sedimentation equilibrium, starting concentrations 5, 10 and 20 µM, unlabelled peptide, no DMSO; 20 °C, sodium phosphate pH 6.8 with NaCl; fitted to a single ideal species (N) and, for the WT, to a dimer-tetramer model (apparent KD: tetramer to dimers)
[8] = biological target: the molecule itself; test: as above; remark: listed apart in the source
[9] = biological target: T2, WT STIL CCD peptide labelled with 7-(Diethylamino)coumarin-3-carboxylic acid (7-(Diethylamino)coumarin-3-carboxylic acid on the N-terminus; C-terminal amide); test: other fluorescence titration; fluorescence read on a Monolith NT.115 (micro-scale thermophoresis instrument); 5 µM coumarin-labelled peptide with unlabelled peptide 9 nM to 300 µM; 25 mM sodium phosphate pH 6.8, ionic strength 154 mM (NaCl), 5% DMSO, room temperature (24 °C); Hill fit; apparent; taken by the paper as dimer to monomers; conditions: both partners purified
T2 construct: STIL coiled-coil domain, residues 718-749; also called labeled-WT CCD; fluorophore-labelled peptide; source: synthetic peptide (Fmoc-SPPS, fluorophore coupled on the resin, RP-HPLC purified)
T2 peptide: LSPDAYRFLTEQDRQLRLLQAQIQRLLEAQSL

[10] = test system: Stil−/− mouse embryonic fibroblasts; conditions: full-length STIL expressed in Stil−/− mouse embryonic fibroblasts; ref [14]; cited from earlier work
Description: Presumably, this is due to the disruption of the hydrophobic CC interactions upon mutation from the hydrophobic Leu to the charged Glu. […] Other ...

Sequence of PLK4 884-970 (Homo sapiens) (O00444 884-970): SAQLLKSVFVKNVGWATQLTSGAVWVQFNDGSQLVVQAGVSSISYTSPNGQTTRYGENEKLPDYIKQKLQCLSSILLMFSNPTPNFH

Molecule: STIL CCD (from UniProt Q15468)
Kd [1]: 0.28 µM

stoichiometry N (STIL CCD_(718–749) L736E): 2
Molecule: STIL CCD_(718–749) L736E (peptide)

Kd [2]: 8.5 ± 0.4 µM | Kd [9]: 8 ± 2 µM
B1: STIL CCD_(718–749) WT (peptide)
peptide: LSPDAYRFLTEQDRQLRLLQAQIQRLLEAQSL-NH2
notes: STIL (SCL/TAL1 Interrupting Locus) coiled-coil domain, residues 718-749; 32-residue peptide, unlabelled; also called WT STIL CCD peptide; WT CCD; source: synthetic peptide (Fmoc-SPPS on rink amide, RP-HPLC purified)
stoichiometry N [3]: 3.27 × monomer mass | stoichiometry N [4]: 3.4 × monomer mass | stoichiometry N [5]: 2 × monomer mass | stoichiometry N [6]: 1.7 | Kd [7]: 68 ± 2 µM | stoichiometry N [8]: 2.9 ± 0.04

B2: WT STIL: full-length wild-type STIL protein (protein, UniProt Q15468 1-1287, looked up)
chain: MEPIYPFARPQMNTRFPSSRMVPFHFPPSKCALWNPTPTGDFIYLHLSYYRNPKLVVTEKTIRLAYRHAKQNKKNSSCFLLGSLTADEDEEGVTLTVDRFDPGREVPECLEITPTASLPGDFLIPCKVHTQELCSREMIVHSVDDFSSALKALQCHICSKDSLDCGKLLSLRVHITSRESLDSVEFDLHWAAVTLANNFKCTPVKPIPIIPTALARNLSSNLNISQVQGTYKYGYLTMDETRKLLLLLESDPKVYSLPLVGIWLSGITHIYSPQVWACCLRYIFNSSVQERVFSESGNFIIVLYSMTHKEPEFYECFPCDGKIPDFRFQLLTSKETLHLFKNVEPPDKNPIRCELSAESQNAETEFFSKASKNFSIKRSSQKLSSGKMPIHDHDSGVEDEDFSPRPIPSPHPVSQKISKIQPSVPELSLVLDGNFIESNPLPTPLEMVNNENPPLINHLEHLKPLQPQLYDEKHSPEVEAGEPSLRGIPNQLNQDKPALLRHCKVRQPPAYKKGNPHTRNSIKPSSHNGPSHDIFEKLQTVSAGNVQNEEYPIRPSTLNSRQSSLAPQSQPHDFVFSPHNSGRPMELQIPTPPLPSYCSTNVCRCCQHHSHIQYSPLNSWQGANTVGSIQDVQSEALQKHSLFHPSGCPALYCNAFCSSSSPIALRPQGDMGSCSPHSNIEPSPVARPPSHMDLCNPQPCTVCMHTPKTESDNGMMGLSPDAYRFLTEQDRQLRLLQAQIQRLLEAQSLMPCSPKTTAVEDTVQAGRQMELVSVEAQSSPGLHMRKGVSIAVSTGASLFWNAAGEDQEPDSQMKQDDTKISSEDMNFSVDINNEVTSLPGSASSLKAVDIPSFEESNIAVEEEFNQPLSVSNSSLVVRKEPDVPVFFPSGQLAESVSMCLQTGPTGGASNNSETSEEPKIEHVMQPLLHQPSDNQKIYQDLLGQVNHLLNSSSKETEQPSTKAVIISHECTRTQNVYHTKKKTHHSRLVDKDCVLNATLKQLRSLGVKIDSPTKVKKNAHNVDHASVLACISPEAVISGLNCMSFANVGMSGLSPNGVDLSMEANAIALKYLNENQLSQLSVTRSNQNNCDPFSLLHINTDRSTVGLSLISPNNMSFATKKYMKRYGLLQSSDNSEDEEEPPDNADSKSEYLLNQNLRSIPEQLGGQKEPSKNDHEIINCSNCESVGTNADTPVLRNITNEVLQTKAKQQLTEKPAFLVKNLKPSPAVNLRTGKAEFTQHPEKENEGDITIFPESLQPSETLKQMNSMNSVGTFLDVKRLRQLPKLF
modifications: full-length
notes: full-length wild-type STIL protein
formation of centrosomes and cilia (in words) [10]: rescues this phenotype
